# Laboratory results reported in doi:10.1101/2023.05.02.539157, “Toxic anti-phage defense proteins inhibited by intragenic antitoxin proteins” (bioRxiv, 2023).
# T1: RpnAL* (RpnA_(K240R+E241D+M244L)) (E. coli, UniProt P31667 1-292, K240R | E241D | M244L)
# T1 construct: source: E. coli, overexpressed as C-terminally tagged intein fusion protein, purified
# T1 sequence (looked up): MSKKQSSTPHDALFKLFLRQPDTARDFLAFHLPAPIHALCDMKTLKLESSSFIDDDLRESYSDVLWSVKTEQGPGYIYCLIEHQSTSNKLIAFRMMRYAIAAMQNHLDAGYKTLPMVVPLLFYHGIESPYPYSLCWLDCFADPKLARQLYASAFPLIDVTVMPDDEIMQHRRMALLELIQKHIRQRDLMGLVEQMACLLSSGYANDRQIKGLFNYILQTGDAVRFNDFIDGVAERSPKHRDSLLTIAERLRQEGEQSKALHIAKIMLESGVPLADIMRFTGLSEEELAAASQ
# T2: RpnAL (full-length RpnA, wild type, in the native RpnALS complex) (E. coli, UniProt P31667 1-292)
# T2 construct: source: E. coli, WT rpnA gene in an overexpression vector, C-terminally tagged intein fusion, purified together with RpnAS
# T2 sequence (looked up): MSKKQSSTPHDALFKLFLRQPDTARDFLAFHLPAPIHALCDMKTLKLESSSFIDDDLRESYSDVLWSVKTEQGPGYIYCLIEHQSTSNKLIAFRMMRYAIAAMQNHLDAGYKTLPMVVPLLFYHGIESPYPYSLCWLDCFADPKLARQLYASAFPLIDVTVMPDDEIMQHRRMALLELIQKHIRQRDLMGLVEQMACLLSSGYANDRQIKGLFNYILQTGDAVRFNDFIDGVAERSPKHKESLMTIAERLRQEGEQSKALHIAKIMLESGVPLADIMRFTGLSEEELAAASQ
# B1: RpnAS (natural protein, E. coli, UniProt P31667 244-292, looked up)
# chain: MTIAERLRQEGEQSKALHIAKIMLESGVPLADIMRFTGLSEEELAAASQ
# notes: also called RpnS of RpnA; small C-terminal protein of RpnA
# Experiments:
# [1] = target: T1, RpnAL* (RpnA_(K240R+E241D+M244L)); experiment: SEC; Superdex 200 column; individually purified proteins alone and mixed, and the native co-purified RpnALS complex; peak fractions checked by SDS-PAGE; settings: both partners purified
# [2] = target: T2, RpnAL (full-length RpnA, wild type, in …); experiment: SEC-MALS; multi-angle light scattering coupled with size exclusion chromatography of purified RpnAS and of the purified RpnALS complex; settings: both partners purified
# [3] = target: the molecule itself; experiment: as above
binder,measurement,setting,value
B1,binding result,[1],binds
same,stoichiometry N,[2],1 RpnAS per RpnAL (2:2)
same,stoichiometry N,[3],2
